Results on two molecules are retold here after PMC11160731.

The target in one series is VapB46;VapC46 (Mycobacterium tuberculosis …, UniProt P9WF13;O50411 1-102;1-130, |). In words: EMSA. (In general: In EMSA bound probe runs differently from free probe, usually more slowly.)
In the next series the target is VapB27;VapC27 (Mycobacterium tuberculosis …, UniProt O07779;P9WF83 1-78;1-137, |). As to the kind of experiment: EMSA.
Chain of VapB27;VapC27 (O07779 whole entry, chain 1 of 2): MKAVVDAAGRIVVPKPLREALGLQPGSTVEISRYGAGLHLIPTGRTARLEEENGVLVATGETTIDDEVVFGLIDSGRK
Chain of VapB27;VapC27 (P9WF83 whole entry, chain 2 of 2): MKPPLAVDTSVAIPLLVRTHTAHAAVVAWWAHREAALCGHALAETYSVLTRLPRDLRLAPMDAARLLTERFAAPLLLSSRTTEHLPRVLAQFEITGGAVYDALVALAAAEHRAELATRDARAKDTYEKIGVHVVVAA

Chain of VapB46;VapC46 (P9WF13 whole entry, chain 1 of 2): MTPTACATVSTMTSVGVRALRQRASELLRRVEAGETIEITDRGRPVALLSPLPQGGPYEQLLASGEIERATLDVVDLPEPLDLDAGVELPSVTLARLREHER
Chain of VapB46;VapC46 (O50411 whole entry, chain 2 of 2): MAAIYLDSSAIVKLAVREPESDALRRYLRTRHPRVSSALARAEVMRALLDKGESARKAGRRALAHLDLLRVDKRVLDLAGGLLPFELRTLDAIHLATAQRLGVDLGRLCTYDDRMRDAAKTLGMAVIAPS

B1: vapB46 promoter oligo (dsDNA)
DNA 1: TCCTCCCAGCTCAGCGCCAACCAACCGAGGAACAACGCGCCGACTTTTTCAG
DNA 2: CTGAAAAAGTCGGCGCGTTGTTCCTCGGTTGGTTGGCGCTGAGCTGGGAGGA
Regarding B1, the binding result with VapB46;VapC46 was “binds”.

B2: vapB27 promoter oligo (dsDNA)
DNA 1: CGGTGAGTCGACTTCCGCACCTGAGTGGGAAGCCATTGGTATCGTATTCCCATGA
DNA 2: TCATGGGAATACGATACCAATGGCTTCCCACTCAGGTGCGGAAGTCGACTCACCG
On to B2, for which the binding result in the series with VapB27;VapC27 is reported as “binds”.
